Measurements published in article PMC4184033 (Nature structural & molecular biology, 2011).

B1: Cdc45 (natural protein, Drosophila melanogaster, UniProt O96989 1-575, looked up)
chain: MFVQDLRNDFYRQLVGKRILIVVNYDIDAICASRILQALFKYDHMLYTVVPIMGVTGLKRAYGEHQGDVKYVVLVNCGGCVDIVELLQPSDDVTFFICDSHRPLDVCNIYSDRQVCILGDASLEENIPAFETIFYDSEGEDEDEDESSDTEQQHDDSGAGESDQEDQAPRSRKLSRLERHEQRILKQRARRQWESERDRIMFEYTQFSYYGRSAALMVFELAWKLSKDNMDLLWWAIVGITEQLLLGKIESGAYTLELEQIQSHVSRLTNKTNDQNTMSASKITFENDLHLVLYRHWPVTESMRYSRYSSCQLKLWTLRGEKRLHELLLEMGLPLVHARQTYGAMDLVLRKEFFSMVERLAEKYDIADIVYGTFTLSYGYRSRYAAADYVYALLAIMESVKKHKTPEDCFLEASDALSRQHKQLLSAGIDQAKLLHAAVFRQVQSSLEARQVHSAGSFFYYVLQEEHAFFSYPYALGLLARFLLRGHVATSRARQASDLPLIASCPLNASEGMCLLVGIVPVREDSPRNFFGKAFEQAAQKSGVALLQDFFEPAVVQLRQSDLTRFLDSLTVLLA
B2: Psf2 (natural protein, Drosophila melanogaster, UniProt Q9VQY9 1-203, looked up)
chain: MDPSIIEFIGEKCMISIIPNFSNEPLHLIYGPVGPFRAGFPVFVPLWMATHLRKQQKCRIVPPEWMDMDILEEIKEEEKRSKFFTKMPCEHYMVVAQLVMSTAPDDVPRCEELRTVIKDIFDIRESKLRTSIDAFIKGEGTYAKLDNLTLLEIHSVRPILPYSLDHIARYQRTATASQRDTSMLSASMAGSSSGPNSNSLFSQ

How the values were obtained:
Experiment in all cases: negative-stain single-particle EM
Mcm2 = biological target: T1, Mcm2 (Drosophila melanogaster, UniProt P49735 1-887)
T1 sequence (looked up): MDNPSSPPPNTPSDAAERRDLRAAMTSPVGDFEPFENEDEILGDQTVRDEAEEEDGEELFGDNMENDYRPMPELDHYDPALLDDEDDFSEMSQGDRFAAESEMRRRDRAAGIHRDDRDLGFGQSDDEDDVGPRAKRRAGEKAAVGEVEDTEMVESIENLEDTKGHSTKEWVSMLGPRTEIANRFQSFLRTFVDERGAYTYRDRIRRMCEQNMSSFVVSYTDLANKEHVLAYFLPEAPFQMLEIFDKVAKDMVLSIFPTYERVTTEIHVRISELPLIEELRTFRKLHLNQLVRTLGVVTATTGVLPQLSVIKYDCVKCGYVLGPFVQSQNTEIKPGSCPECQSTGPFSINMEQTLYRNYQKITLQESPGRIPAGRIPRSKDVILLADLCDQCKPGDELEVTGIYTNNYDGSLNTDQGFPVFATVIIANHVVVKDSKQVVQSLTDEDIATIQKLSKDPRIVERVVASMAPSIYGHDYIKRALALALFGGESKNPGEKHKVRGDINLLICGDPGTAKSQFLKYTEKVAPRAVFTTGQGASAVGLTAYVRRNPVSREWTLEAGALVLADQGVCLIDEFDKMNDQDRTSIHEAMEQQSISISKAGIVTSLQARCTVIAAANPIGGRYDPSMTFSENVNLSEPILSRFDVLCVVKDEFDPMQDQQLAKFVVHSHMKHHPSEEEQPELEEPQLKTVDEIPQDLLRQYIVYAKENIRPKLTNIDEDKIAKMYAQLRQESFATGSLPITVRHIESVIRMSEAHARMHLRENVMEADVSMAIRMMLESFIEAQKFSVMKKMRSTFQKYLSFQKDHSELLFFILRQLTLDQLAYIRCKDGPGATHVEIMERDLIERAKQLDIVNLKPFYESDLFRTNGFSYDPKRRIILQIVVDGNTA

Mcm5 = biological target: T2, Mcm5 (Drosophila melanogaster, UniProt Q9VGW6 1-733)
T2 sequence (looked up): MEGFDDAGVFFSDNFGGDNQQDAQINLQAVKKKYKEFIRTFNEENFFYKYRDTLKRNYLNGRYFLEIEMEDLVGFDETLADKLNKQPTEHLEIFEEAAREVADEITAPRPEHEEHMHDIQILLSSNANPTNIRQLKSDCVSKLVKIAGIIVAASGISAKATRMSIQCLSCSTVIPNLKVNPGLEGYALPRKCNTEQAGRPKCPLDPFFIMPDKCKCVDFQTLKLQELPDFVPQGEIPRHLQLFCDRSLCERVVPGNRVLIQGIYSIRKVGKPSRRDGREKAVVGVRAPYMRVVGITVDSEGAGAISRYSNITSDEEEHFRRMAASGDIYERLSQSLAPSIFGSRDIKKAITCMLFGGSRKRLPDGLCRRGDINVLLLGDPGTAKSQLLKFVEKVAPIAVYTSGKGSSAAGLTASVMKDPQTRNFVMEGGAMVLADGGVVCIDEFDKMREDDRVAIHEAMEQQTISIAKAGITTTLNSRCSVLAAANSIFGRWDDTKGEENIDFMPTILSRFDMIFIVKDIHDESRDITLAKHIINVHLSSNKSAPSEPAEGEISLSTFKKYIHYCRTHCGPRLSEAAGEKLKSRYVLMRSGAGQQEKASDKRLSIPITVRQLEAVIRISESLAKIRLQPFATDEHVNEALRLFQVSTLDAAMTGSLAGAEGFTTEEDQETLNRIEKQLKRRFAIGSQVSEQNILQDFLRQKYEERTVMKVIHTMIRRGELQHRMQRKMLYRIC

Cdc45 = biological target: B1

| Binder | binding result (Mcm2) | binding result (Mcm5) | binding result (Cdc45) |
| --- | --- | --- | --- |
| B1 | binds | – | – |
| B2 | – | binds | binds |
